Results as given in US20240398902A1.

Assays:
[1] = target: Type I IFN receptor (IFNAR1 and IFNAR2) on HEK-Blue 293 reporter cells (UniProt P17181); experiment: cell-based or functional assay
[2] = target: Type II IFN receptor (IFNGR1 and IFNGR2) on HEK-Blue 293 reporter cells (UniProt P15260); experiment: cell-based or functional assay
Type II IFN receptor (IFNGR1 and IFNGR2) on HEK-Blue 293 reporter cells, sequence (P15260 18-489 limits assumed, chain 1 of 2): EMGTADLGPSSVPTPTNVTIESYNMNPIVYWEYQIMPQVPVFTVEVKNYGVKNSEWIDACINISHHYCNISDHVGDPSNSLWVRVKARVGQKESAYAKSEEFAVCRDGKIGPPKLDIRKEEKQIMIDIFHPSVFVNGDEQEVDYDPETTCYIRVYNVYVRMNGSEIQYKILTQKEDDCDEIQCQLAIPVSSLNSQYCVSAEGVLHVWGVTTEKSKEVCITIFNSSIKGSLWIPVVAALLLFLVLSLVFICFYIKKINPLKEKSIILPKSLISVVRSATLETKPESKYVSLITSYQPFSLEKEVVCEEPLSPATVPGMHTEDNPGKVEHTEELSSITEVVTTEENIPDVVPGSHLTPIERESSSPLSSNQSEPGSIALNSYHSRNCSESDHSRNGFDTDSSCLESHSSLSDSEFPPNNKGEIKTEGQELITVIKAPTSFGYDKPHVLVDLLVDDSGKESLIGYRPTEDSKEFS
Type II IFN receptor (IFNGR1 and IFNGR2) on HEK-Blue 293 reporter cells, sequence (P38484 22-337 limits assumed, chain 2 of 2, further chain): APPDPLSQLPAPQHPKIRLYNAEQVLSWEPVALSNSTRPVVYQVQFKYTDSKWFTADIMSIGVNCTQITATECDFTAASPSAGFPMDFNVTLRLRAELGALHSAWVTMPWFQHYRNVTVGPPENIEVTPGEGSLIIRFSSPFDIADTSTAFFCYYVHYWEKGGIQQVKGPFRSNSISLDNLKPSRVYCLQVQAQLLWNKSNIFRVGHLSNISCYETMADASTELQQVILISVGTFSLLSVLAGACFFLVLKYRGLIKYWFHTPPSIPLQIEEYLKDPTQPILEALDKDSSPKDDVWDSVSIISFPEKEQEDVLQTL

Type I IFN receptor (IFNAR1 and IFNAR2) on HEK-Blue 293 reporter cells, sequence (P17181 28-557 limits assumed, chain 1 of 2): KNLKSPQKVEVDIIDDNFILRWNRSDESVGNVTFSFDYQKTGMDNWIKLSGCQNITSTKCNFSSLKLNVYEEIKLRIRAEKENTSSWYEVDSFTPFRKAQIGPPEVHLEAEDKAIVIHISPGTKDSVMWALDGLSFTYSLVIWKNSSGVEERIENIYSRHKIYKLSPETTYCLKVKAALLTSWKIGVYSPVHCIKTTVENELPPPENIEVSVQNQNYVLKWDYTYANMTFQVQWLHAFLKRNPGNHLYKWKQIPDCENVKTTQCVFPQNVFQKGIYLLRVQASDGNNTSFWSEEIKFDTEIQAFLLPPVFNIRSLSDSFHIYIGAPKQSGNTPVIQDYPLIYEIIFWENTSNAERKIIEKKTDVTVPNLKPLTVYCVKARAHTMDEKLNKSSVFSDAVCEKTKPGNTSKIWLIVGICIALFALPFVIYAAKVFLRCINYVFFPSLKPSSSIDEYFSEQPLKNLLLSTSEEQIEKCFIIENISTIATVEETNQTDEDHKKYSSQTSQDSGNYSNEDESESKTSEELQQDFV
Type I IFN receptor (IFNAR1 and IFNAR2) on HEK-Blue 293 reporter cells, sequence (P48551 27-515 limits assumed, chain 2 of 2, further chain): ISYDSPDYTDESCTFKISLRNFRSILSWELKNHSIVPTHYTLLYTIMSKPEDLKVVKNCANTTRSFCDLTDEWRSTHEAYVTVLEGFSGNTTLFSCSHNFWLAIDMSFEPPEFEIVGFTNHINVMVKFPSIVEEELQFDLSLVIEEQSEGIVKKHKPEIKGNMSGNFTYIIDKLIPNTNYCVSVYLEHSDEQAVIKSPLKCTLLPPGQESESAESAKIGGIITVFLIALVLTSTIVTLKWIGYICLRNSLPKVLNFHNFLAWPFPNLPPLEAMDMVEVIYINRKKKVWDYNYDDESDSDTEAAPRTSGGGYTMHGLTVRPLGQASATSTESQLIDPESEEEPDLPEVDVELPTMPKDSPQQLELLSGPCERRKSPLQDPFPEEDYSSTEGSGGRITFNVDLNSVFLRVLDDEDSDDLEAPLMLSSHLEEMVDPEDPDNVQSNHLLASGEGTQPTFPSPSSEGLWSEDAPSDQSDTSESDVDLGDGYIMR

| Substance | EC50 of SEAP reporter response, HEK-Blue IFN reporter cells [1] | MHC I (HLA I) expression, MFI by FACS against untreated 293T cells (fold increase) [1] | EC50 of SEAP reporter response, HEK-Blue IFN reporter cells [2] |
| --- | --- | --- | --- |
| soluble IFNβ (from UniProt P01574 22-187) (ligand) | 0.9 pM | 9 |  |
| soluble IFNγ (from UniProt P01579 24-166) (ligand) |  |  | 7.1 pM |
